According to publication PMC11488661 (Science immunology, 2024):

Target: T1, eOD-GT8 (monomeric ligand) (Human immunodeficiency virus 1, …)
T1 construct: also called eOD-GT8 ligand; GT8-prime ligand
Experiment: SPR; Carterra LSA; kinetics and affinity of antibody–antigen interactions, methods as in Cottrell et al. (ref. 56); who was immobilised is not told (the antigens are called ligands); values for groups are geometric means over the mAbs
Conditions: both partners purified

B1: CLK21 germline (GL) mAb (antibody, V domains shown)
VH: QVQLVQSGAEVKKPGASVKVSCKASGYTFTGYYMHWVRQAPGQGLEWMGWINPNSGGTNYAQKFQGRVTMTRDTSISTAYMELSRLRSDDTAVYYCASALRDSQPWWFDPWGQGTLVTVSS
VL: DIQMTQSPSTLSASVGDRVTITCRASQSISSWLAWYQQKPGKAPKLLIYKASSLESGVPSRFSGSGSGTEFTLTISSLQPDDFATYYCQQYGTFGGGTKVEIK
- Kd: 440 nM
